Molecular target: human carcinoembryonic antigen-related cell adhesion molecule 1 (CEACAM1) (human) (UniProt P13688)
Assay: cell-based or functional assay

Chain of UniProt P13688 (P13688 35-526): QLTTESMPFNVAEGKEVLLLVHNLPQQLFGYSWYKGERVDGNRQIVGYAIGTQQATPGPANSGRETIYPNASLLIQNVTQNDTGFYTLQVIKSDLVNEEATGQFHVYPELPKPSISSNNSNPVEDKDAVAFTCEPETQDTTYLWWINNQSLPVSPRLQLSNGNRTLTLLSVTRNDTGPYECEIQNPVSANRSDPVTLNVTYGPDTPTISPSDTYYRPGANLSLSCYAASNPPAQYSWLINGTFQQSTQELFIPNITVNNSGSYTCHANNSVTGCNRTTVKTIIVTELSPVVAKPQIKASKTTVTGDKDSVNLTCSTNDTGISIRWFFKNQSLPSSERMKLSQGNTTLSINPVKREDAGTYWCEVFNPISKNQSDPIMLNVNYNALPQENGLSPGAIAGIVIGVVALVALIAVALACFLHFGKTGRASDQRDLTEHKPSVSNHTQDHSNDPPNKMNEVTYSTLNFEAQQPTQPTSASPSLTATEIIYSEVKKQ

- % Inhibition of NET-induced migration (vs. isotype control), human NSCLC A549: 82.7%
- % Inhibition of NET-induced migration (vs. isotype control), human PDAC AsPC-1: 49.1%
- % Inhibition of NET-induced migration (vs. isotype control), human melanoma SKMEL-28: 69.5%
- ADP-induced platelet aggregation, mean (ADP + CM24, 500 µg/ml, 30 min pretreat): 721 AUC
- AUC of cell count, NET-induced migration of AsPC-1 cells (CM24 + NETs, 500 µg/ml): 30600 AUC
- Mean AUC of cell count, NET-induced migration of A549 cells (CM24 + NETs, 500 µg/ml): 6580 AUC
- Mean AUC of cell count, NET-induced migration of SKMEL-28 cells (CM24 + NETs, 500 µg/ml): 2950 AUC
- Norm. AUC of cell count, NET-induced migration of A549 cells (CM24 + NETs, 500 µg/ml): 2170 AUC
- Norm. AUC of cell count, NET-induced migration of AsPC-1 cells (CM24 + NETs, 500 µg/ml): 9410 AUC
- Norm. AUC of cell count, NET-induced migration of SKMEL-28 cells (CM24 + NETs, 500 µg/ml): 1640 AUC
- Percentage platelet aggregation at 30 min, fresh NETs 5 ng/µl, 500 µg/ml CM24: -5.3%
- Percentage platelet aggregation at 30 min, fresh NETs 10 ng/µl, 500 µg/ml CM24: 11.5%
- Platelet aggregation with fresh NETs 5 ng/µl, mean AUC (% aggregation versus time), 500 µg/ml CM24: 179 AUC
- Platelet aggregation with fresh NETs 10 ng/µl, mean AUC (% aggregation versus time), 500 µg/ml CM24: 377 AUC
- Reduction of NET-induced platelet aggregation vs. isotype control, 5 ng/µl fresh NETs: 70%
- Reduction of NET-induced platelet aggregation vs. isotype control, 10 ng/µl fresh NETs: 53%
B1: CM24, humanized IgG4 anti-CEACAM1 monoclonal antibody (antibody, V domains shown)
VH: QVQLVQSGAEVKKPGASVKVSCKASGYAFTNNLIEWVRQAPGQGLEWIGVINPGSGDTNYNEKFKGRVTMTADKSISTAYMELSRLRSDDTAVYYCARGDYYGGFAVDYWGQGTTVTVSS
VL: DIQMTQSPSSLSASVGDRVTITCRTSQDIGNYLNWYQQKPGKAVKLLIYYTSRLHSGVPSRFSGSGSGTDYTLTISSLQPEDIATYFCQQGKSLPRTFGGGTKVEIKR

Source: patent US20260167717A1
